Assay results: patent publication US5574007A, “Polypeptide capable of interacting with thrombin” (Asahi Kasei Kogyo Kabushiki Kaisha, priority 1990, dated 1996)
Positions of bridges follow the written chain, without caps; N, C: chain ends. Residues, ends and D or L forms follow the SMILES beside them.

Experiments:
[1] = biological target: binding of thrombin to thrombomodulin (Homo sapiens, UniProt P00734); experiment: Activity of synthetic peptides to inhibit the binding of thrombin to thrombomodulin (Dixon plot); settings: D123Asp-coated plate, crosslinked synthetic peptide
Method: The acitvity of each of the synthetic peptides to inhibit the binding of thrombin to thrombomodulin is determined by the following method. D123Asp purified in Example 1-(4)-(b) is diluted with 0.1M sodium bicarbonate buffer (pH 9.2) so that the final concentration of D123Asp becomes 1.5 μg/ml. 100 μl of the diluent is dispensed to each well of a flat-bottomed 96 well-microtiter plate for ELISA. The plate is allowed to stand for 3 hours, and then each well is washed with 0.1M sodium bicarbonate buffer (pH 9.2). 150 μl of 50 mM Tris-HCl buffer (pH 7.5) containing 0.1M NaCl and 1% BSA is dispensed to each well, and the plate is allowed to stand for 2 hours so that each well is subjected to blocking. To each well of the plate is added a solution obtained by reacting thrombin (0 to 0.4 μg/μl), which has been diluted with a washing solution {50 mM Tris-HCl buffer (pH 7.5) containing 0.5% BSA and 0.05% Tween-20}, with various concentrations of the synthetic peptide solutions at 37° C. for 30 minutes, and a reaction is conducted at room temperature for 1 hour. The plate is washed again with the above-mentioned washing solution. To each well of the plate is added 100 μl of 50 mM Tris-HCl buffer (pH 8.0) containing 0.1M NaCl, in which 200 μM H-D-Phe-Pip-Arg-pNA (Kabi Virum, Sweden, catalog No. S2238) has been dissolved, to thereby liberate pNA (paranitroanilin). A few hours later, the absorbance of the liberated pNA is measured at a wavelength of 410 nm. To determine the inhibition constant (Ki) of each of the synthetic peptides, 100/v in which v represents the thrombin activity (expressed in %) at the time when a peptide having a predetermined concentration is added, assuming the thrombin activity in the absence of a peptide as 100%, is plotted in rectangular coordinates against the concentration of the peptide to-obtain a graph (Dixon plot). The inhibition constant (Ki) is defined as the reading of the intersection of the plotted line with the abscissa.

[2] = biological target: T1, thrombin-catalyzed activation of protein C (Homo sapiens, UniProt P00734); experiment: Activated protein C formation against reaction time with purified polypeptide (Example 4-(6)); assay type: biochemical
Method: To 0.02M Tris-HCl buffer (pH 8.5) containing 0.1M NaCl, 0.5 mM CaCl2 and 10 mg/ml BSA are added 50 μg/ml protein C, 5 nM thrombin and 5 nM of each of the purified polypeptides of the present invention, and reacted at 37° C. To each of the reaction mixtures are added 300 μg/ml antithrombin III (manufactured and sold by Sigma Chemical Company, U.S.A.) and 5 mM EDTA to terminate the reaction. Then, the amount of the activated protein C produced by the reaction is determined by the method described in Example 1-(3) in which a synthetic substrate is used.

[3] = biological target: thrombin-catalyzed conversion of fibrinogen to fibrin (Homo sapiens, UniProt P00734); experiment: Anticoagulating activity: clotting time of a fibrinogen solution; assay type: biochemical; settings: polypeptide purified from Acremonium chrysogenum (Example 6(4))
Method: The activity of each of the polypeptides of the present invention to inhibit the thrombin-catalyzed conversion of fibrinogen to fibrin so as to inhibit blood coagulation, is determined by measuring clotting time using Coagulometer KC-10A (manufactured and sold by Heinrich Amelung A.G., Germany). Illustratively stated, to 0.05M Tris-HCl buffer (pH 7.5) containing 5 mM CaCl2 and 0.1M NaCl is added 3.0 μg of fibrinogen (Fraction I, manufactured and sold by Sigma Chemical Company, U.S.A.). To the resultant mixture is added 0 to 50 nM of each of the purified polypeptides of the present invention. Then, 10 nM thrombin is added to the mixture in such an amount that the total amount of the mixture becomes 0.4 ml, and then the coagulation time of the mixture is measured.

[4] = test system: thrombin-catalyzed platelet aggregation; experiment: Platelet aggregation-inhibiting activity (Platelet Rich Plasma, HEMA TRACER IV); assay type: cell-based; settings: polypeptide purified from Acremonium chrysogenum (Example 6(4))
Method: The activity of each of the polypeptides of the present invention to inhibit the thrombin-catalyzed platelet aggregation is evaluated using platelet aggregation measuring apparatus HEMA TRACER IV (manufactured and sold by NIKO Bioscience, Inc., Japan). Measurement is carried out according to the manual attached thereto. When 40 μl of a 20 NIH unit/ml thrombin solution (manufactured and sold by SIGMA Chemical Co., U.S.A., T 6759) is added to 180 μl of a Platelet Rich Plasma (PRP) platelet solution (3×10^5 cells/μl) and incubated, the aggregation of platelets occurs. […] The aggregation of platelets is determined on the basis of the transparency, assuming the transparency of Platelet Poor Plasma (PPP) solution as 100%. The ratio of platelet aggregation is plotted against the incubation time (0 min: the time when thrombin or a mixture of thrombin and one of the polypeptides is added to the PRP solution). It is confirmed that the platelet aggregation is inhibited when one of the polypeptides of the present invention is added.

[5] = biological target: T1, thrombin-catalyzed activation of protein C; experiment: Assay of the activity to promote the thrombin-catalyzed activation of protein C (Example 1-(3), fluorogenic substrate Boc-Leu-Ser-Thr-Arg-MCA); assay type: biochemical, bovine; parameters: 3 μl of thrombin (manufactured and sold by Sigma Chemical Company, catalog No. T-6759, 20 ng/μl); purchased Sigma Chemical Company T-6759; settings: for activity to promote the thrombin-catalyzed activation of protein C (in words): purified polypeptide from COS-1, calcium ion concentrations of 0 to 5 mM
Method: 5 μl of the supernatant of the culture of COS-1 cells is transformed by each of plasmids pSV2TMD7 and pSV2TMD8, 3 μl of thrombin (manufactured and sold by Sigma Chemical Company, catalog No. T-6759, 20 ng/μl), 5 μl of 10×Assay Buffer containing 1M NaCl, 30 mM CaCl2, 1% calf serum albumin and 0.5M tris-HCl buffer (pH 8.5) and 29.5 μl of distilled water are mixed together and allowed to stand at 37° C. for 5 minutes, followed by the addition of 7.5 μl protein C (derived from bovine, 0.2 μg/μl) to the mixture. The reaction is conducted at 37° C. for 30 minutes, and terminated by adding 6.25 μl of a stop solution (20 mM tris-HCl buffer, pH7.5, containing 100 mM NaCl, 0.3A280 anti-thrombin III and 100 μg/ml heparin).
The activity of activated protein C is measured by first adding 10 μl of Boc-Leu-Ser-Thr-Arg-MCA (manufactured and sold by Peptide Institute, The Foundation (Japan), 5 mg/ml), 5 μl of 5M CsCl and 495 μl of a substrate reaction buffer (50 mM tris-HCl buffer containing 100 mM NaCl (pH 8.5)), next allowing the reaction to proceed at 37° C. for 20 minutes, then terminating the reaction by adding 55 μl of acetic acid, and finally measuring the concentration of liberated AMC ([…]) by means of a spectrofluorometer (model RF-540, manufactured and sold by Shimadzu Corporation, Japan) at an excitation wavelength of 380 nm and an emission wavelength of 440 nm. The obtained fluorescence intensity is compared with the fluorescence intensity of a solution having a known AMC concentration to determine the amount of the liberated AMC. The value obtained by deducting from this amount the amount of AMC in the case where an aqueous solution containing no polypeptide of the present invention is added, represents the activity of the polypeptide to promote the thrombin-catalyzed activation of protein C. The activity to produce 1 nM of activated protein C per ml of reaction mixture and per minute is defined as 1 u (unit).
(§1) With respect to the polypeptide solutions (0.4 μg/ml) purified and quantitated in Example 1-(5)-(d), the activity of polypeptides to promote the thrombin-catalyzed activation of protein C is measured according to the method described in Example 1-(3). The CaCl2 concentration of 10×Assay buffer is adjusted so that the activities at calcium ion concentrations of 0 to 5 mM are determined. Also, with respect to protein C having no Gla domain (hereinafter referred to as "GDPC") which is prepared by chymotrypsin treatment according to the method of N. L. Esmon [J. Biol. Chem. Vol. 258, pp. 5548-5553 (1983)]and which is used instead of protein C, the activity measurement is carried out within the same range of calcium concentration.

[6] = biological target: T2, thrombin-catalyzed activation of GDPC (protein C having no Gla domain) (Homo sapiens, UniProt P00734); experiment: Same assay with protein C having no Gla domain (GDPC) instead of protein C; assay type: biochemical; settings: calcium ion concentrations of 0 to 5 mM
T2 construct: 3 μl of thrombin (manufactured and sold by Sigma Chemical Company, catalog No. T-6759, 20 ng/μl); purchased Sigma Chemical Company T-6759
Method: as §1

With `CSCC[C@H](N)C(=O)N[C@@H](Cc1ccccc1)C(=O)N[C@H]1CSSC[C@@H](C(=O)N[C@@H](CC(=O)O)C(=O)O)NC(=O)[C@H](CC(=O)O)NC(=O)[C@H](C)NC(=O)[C@@H]2CCCN2C(=O)[C@H](C)NC(=O)[C@H](C)NC(=O)[C@H]([C@@H](C)O)NC(=O)[C@H](CCC(N)=O)NC(=O)[C@H](CC(N)=O)NC1=O` [Polypeptide A, Met-Phe-Cys-Asn-Gln-Thr-Ala-Ala-Pro-Ala-Asp-Cys-Asp] (H-MFCNQTAAPADCD-OH; disulfide 3-12) the “Inhibition constant (Ki)” value [1] was “no inhibiting activity”.

For “E456Glu: 367th to 480th amino acid residues of human thrombomodulin in which the 367th Asp is replaced by Glu (pSV2TMM3)”, the “amount of activated protein C with reaction time (in words)” value ([2]; 5 nM polypeptide, 5 nM thrombin, 50 μg/ml protein C, 37° C., polypeptide from COS-1 or CHO cells) was “increased with the lapse of reaction time”, the “amount of activated protein C with reaction time (in words)” value ([2]; polypeptide purified from Acremonium chrysogenum strains D71 and M31 (Example 6(4))) was “increased with the lapse of reaction time” and the “clotting time of fibrinogen solution against amount of polypeptide (in words)” value [3] was “the longer the clotting time”. For the same compound, the “thrombin-catalyzed platelet aggregation (in words)” value [4] was “inhibited” and the “activity relative to that of E456Asp” value ([5]; activation of protein C) was 1.3 times.

In the case of “D123Ala: polypeptide up to the 516th position of human thrombomodulin wherein the 367th Asp is changed to Ala (pSV2TMM1)”, the “activity in the activation of GDPC (in words)” value [6] is reported as “low activity” and the “activity to promote the thrombin-catalyzed activation of protein C (in words)” value [5] is reported as “low activity”.

`CC[C@H](C)[C@H](NC(=O)[C@H](CC(=O)O)NC(=O)[C@@H](NC(=O)[C@@H]1CSSC[C@H](NC(=O)[C@@H](N)CCC(=O)O)C(=O)N2CCC[C@H]2C(=O)N[C@@H](CCC(=O)O)C(=O)NCC(=O)N[C@@H](Cc2ccc(O)cc2)C(=O)N[C@@H]([C@@H](C)CC)C(=O)N[C@@H](CC(C)C)C(=O)N[C@@H](CC(=O)O)C(=O)N[C@@H](CC(=O)O)C(=O)NCC(=O)N[C@@H](Cc2ccccc2)C(=O)N[C@@H]([C@@H](C)CC)C(=O)N1)[C@@H](C)O)C(=O)N[C@@H](CC(=O)O)C(=O)N[C@@H](CCC(=O)O)C(=O)O` [Polypeptide C, Glu-Cys-Pro-Glu-Gly-Tyr-Ile-Leu-Asp-Asp-Gly-Phe-Ile-Cys-Thr-Asp-Ile-Asp-Glu] (H-ECPEGYILDDGFICTDIDE-OH; disulfide 2-14) showed a Ki ([1]; read-out: Inhibition constant (Ki)) of 95 µM.

With `C[C@H](N)C(=O)N[C@H]1CSSC[C@@H](C(=O)N[C@@H](CCC(=O)O)C(=O)O)NC(=O)[C@H](CO)NC(=O)[C@H](C)NC(=O)[C@H](CCC(N)=O)NC(=O)[C@H]([C@@H](C)O)NC(=O)[C@H](CC(N)=O)NC(=O)[C@@H]2CCCN2C(=O)[C@H](CC(=O)O)NC(=O)[C@H](C)NC(=O)[C@H](CC(=O)O)NC(=O)[C@H](C)NC(=O)[C@@H]2CCCN2C1=O` [Polypeptide B, Ala-Cys-Pro-Ala-Asp-Ala-Asp-Pro-Asn-Thr-Gln-Ala-Ser-Cys-Glu] (H-ACPADADPNTQASCE-OH; disulfide 2-14) the “Inhibition constant (Ki)” value [1] was “no inhibiting activity”.

In the case of “D123Glu: polypeptide up to the 516th position of human thrombomodulin wherein the 367th Asp is changed to Glu (pSV2TMM2)”, the “activity relative to that of D123Asp” value ([5]; activation of protein C) is reported as 1.2 times and the “activity to promote the thrombin-catalyzed activation of protein C (in words)” value [5] is reported as “activity similar to that of D123Asp”.
